One block for each molecule: values may come before it.
Target: T1, myostatin (Bos taurus, UniProt O18836)
T1 sequence (O18836 267-375): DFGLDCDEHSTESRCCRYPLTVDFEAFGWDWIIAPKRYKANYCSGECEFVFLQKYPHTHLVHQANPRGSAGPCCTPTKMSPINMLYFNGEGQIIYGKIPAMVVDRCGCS
Assay: MSV/canonical myostatin competition in C2C12 proliferation assay
Assay type: cell-based, bovine
Details: 1.5 μg/ml Mstn
Method: Competition of roMSV65 with canonical myostatin was carried out with C2C12 murine myoblasts. Myoblasts were seeded in 96-well tissue culture plates (Nunc, Roskilde, Denmark) at a cell density of 1000 cells per well in 200 μl of Dulbecco's modified Eagle's medium (DMEM, Invitrogen, California) supplemented with foetal bovine serum (FBS, 10% v/v, Invitrogen), penicillin (1×10^5 IU/l, Sigma, St Louis, Mo., USA) and streptomycin (100 mg/l, Sigma) buffered with NaHCO3 containing phenol red (7.22 nmol/l) as a pH indicator, and incubated overnight at 37° C. with 5% CO2. The medium was replaced with DMEM 10% FBS test medium containing no added protein, 1.5 or 2.5 μg/ml recombinant myostatin alone and with combination of 1, 2, 4, 10, 20 molar ratio of roMSV65, and the same amounts of roMSV65 without myostatin in a semi-random arrangement of eight replicates (n=8) for each test medium. Plates were incubated at 37° C. with 5% CO2 for 72 hours, and then the medium was removed. […] The plates were gently shaken and the absorbance was measured at 655 nm using a microplate photometer (VersaMax, Molecular Devices, CA).
Competition of roMSV47 with canonical myostatin was carried out with C2C12 murine myoblasts. […] The plates were gently shaken and the absorbance was measured at 655 nm using a microplate photometer (VersaMax, Molecular Devices, CA). […]

restoring of myostatin inhibited proliferation (1:10 molar ratio of myostatin to MSV, 69 h, FIG. 11): ineffective at restoring proliferation
Molecule: roMSV47: 47 amino acid C-terminal mature ovine MSV fragment (SEQ ID NO: 50), recombinant from E. coli (IIFLEVYIQFCSILGEAVFKRQSKSIHFCQNFKIIACLCNTAAFRMK; Ovis aries)

B1: roMSV65: 65 amino acid C-terminal peptide of ovine MSV (SEQ ID NO: 49) expressed as recombinant protein in E. coli (protein)
chain: VHFYTPPYGQWIFHKERKIIFLEVYIQFCSILGEAVFKRQSKSIHFCQNFKIIACLCNTAAFRMK
modifications: Ovis aries
overcoming myostatin-induced inhibition of proliferation (48 h, FIG. 9): overcame myostatin-induced inhibition of proliferation

— patent publication US8455448B2, “Myostatin isoform” (Myostin Therapeutics Pty Ltd, priority 2004, dated 2013)
